Laboratory results as given in patent publication US20150368351A1 (ENGMAB SARL, published 2015).
Blank lines part the entries; values can stand above or below the binder they belong to.

How the values were obtained:
[1] = target: T1, human BCMA on BCMA-expressing multiple myeloma cells (H929, RPMI-8226) (human, UniProt Q02223 1-184); assay: flow cytometry on H929 cells; IgG 20 µg/mL incubated together with competitor Δ-APRIL 2.5 µg/mL; fluorochrome-conjugated anti-human Fc detection
T1 construct: whole, on cells; Endogenous BCMA on H929 (ATCC CRL-9068) or RPMI 8226 (ATCC CCL-155) cells; also called TNFRSF17; H929 cells
T1 sequence (looked up): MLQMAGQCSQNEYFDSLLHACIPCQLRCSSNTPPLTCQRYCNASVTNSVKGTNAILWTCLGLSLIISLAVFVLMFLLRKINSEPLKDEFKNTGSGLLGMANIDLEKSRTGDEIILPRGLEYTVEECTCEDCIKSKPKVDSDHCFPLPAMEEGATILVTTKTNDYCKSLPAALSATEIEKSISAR

[2] = target: T2, recombinant human BCMA Fc(kih) (human, UniProt Q02223 4-53, biotin on the avi-tag at the C-terminus of the Fc knob chain (BirA, in vivo)); assay: SPR, Biacore T200, 25 C; IgG captured by anti-human Fab antibody on CM5 chip, BCMA Fc(kih) as analyte, 1:1 Langmuir
T2 construct: range 4-53;domain: Fc portion (hole chain); Monomeric Fc fusion made in HEK EBNA cells: one BCMA extracellular domain on the knob chain, paired with an unfused hole chain; also called huBCMA Fc(kih); biotinylated human BCMA; not shown: hinge and Fc portion of human IgG1, knob chain (knobs-into-holes)
T2 chain (looked up): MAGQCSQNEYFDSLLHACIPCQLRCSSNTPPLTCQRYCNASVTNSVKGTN

[3] = target: T2, recombinant human BCMA Fc(kih); assay: SPR, ProteOn XPR36, 25 C; biotinylated BCMA on NLC chip by neutravidin capture, Fab as analyte, 1:1 Langmuir
[4] = target: T2, recombinant human BCMA Fc(kih); assay: competition ELISA; biotinylated human BCMA on neutravidin plate saturated with 500 or 1000 nM Fab, competitor murine APRIL 50 nM (1000 ng/mL); anti-FLAG-HRP, OD450-650
[5] = target: T2, recombinant human BCMA Fc(kih); assay: competition ELISA; biotinylated human BCMA on neutravidin plate saturated with 500 or 1000 nM Fab, competitor murine APRIL 6.25 nM (140 ng/mL); anti-FLAG-HRP, OD450-650

Reduction (↓) in binding of anti-BCMA antibodies in presence of APRIL [1]: 25%
Kd [2]: 5.1 nM
koff [2]: 0.00036 s⁻¹
kon [2]: 72000 M⁻¹ s⁻¹
B1: 13A4 anti-BCMA IgG (antibody, V domains shown)
VH: EVQLVQSGAEVKKPGESLKISCKGSGYSFTSYWIGWVRQMPGKGLEWMGIIYPGDSDTRYSPSFQGQVTISADKSISTAYLQWSSLKASDTAMYYCARNGYLGDYWGQGTLVTVSS
VL: not shown

Kd [3]: 1.8 nM
Reduction (↓) in OD values in presence of muAPRIL [4]: 13.1%
Reduction (↓) in OD values in presence of muAPRIL [5]: 7.7%
B2: anti-BCMA Fab clone 13A4 (Fab, V domains shown)
VH: B1 VH
VL: not shown
notes: detected by anti-FLAG antibody
